One test concerns the target T1, nYFP-BIN2 (Arabidopsis, UniProt Q39011 1-380).
T1 construct: BiFC construct in transgenic Arabidopsis, crossed to BZR1-cYFP plants; not shown: N-terminal half of YFP (nYFP)
T1 sequence (looked up): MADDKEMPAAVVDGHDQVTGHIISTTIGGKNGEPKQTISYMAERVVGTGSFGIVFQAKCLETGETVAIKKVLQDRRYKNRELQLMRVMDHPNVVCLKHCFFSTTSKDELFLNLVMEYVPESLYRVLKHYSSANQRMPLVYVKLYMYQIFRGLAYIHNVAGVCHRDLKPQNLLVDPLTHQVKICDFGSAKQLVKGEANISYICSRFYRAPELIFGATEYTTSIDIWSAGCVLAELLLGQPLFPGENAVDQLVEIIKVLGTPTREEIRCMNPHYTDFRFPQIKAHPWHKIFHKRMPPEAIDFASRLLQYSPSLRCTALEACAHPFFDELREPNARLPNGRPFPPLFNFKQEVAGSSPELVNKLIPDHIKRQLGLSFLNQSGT
Nature of the test: BiFC in Arabidopsis seedlings, epidermal cells. As for the experimental part: (§1) FIGS. 5A-5G show regulation of the BIN2 homolog, AtSK12 BSU1-mediated tyrosine dephosphorylation. […] Activation domain (AD) fused AtSKs were transformed into the cells containing DNA binding domain (BD) fused BZR1. Yeast clones were grown on Synthetic Dropout (SD) or SD-Histidine medium. […] Transgenic Arabidopsis plants expressing nYFP-BIN2, nYFP-AtSK12 and nYFP-AtSK12-cd (C-terminal 29 amino acid deletion) were crossed to BZR1-cYFP plants, respectively. The seedlings of F1 generation were grown in white light for 7 days and YFP signals of epidermal cells were observed. […] GST-AtSK12 was incubated with MBP-BZR1 and ³²P-γATP. CBB indicates Coomassie brilliant blue-stained gel. […] Homozygous plants expressing AtSK12-myc were treated with 0.25 MM BL for 30 min. Proteins immunoprecipitated by anti-myc antibodies were blotted onto nitrocellulose membrane and probed by anti-myc antibody. […] (h) BR induces pTyr dephosphorylation of AtSK12. Homozygous AtSK12-myc plants were pretreated with 10 μM MG132 and then treated with 0.25 μM BL (+BL) or mock solution (−BL). […]
(§2) Transformation by Agrobacterium infiltration, observations of subcellular localization and BiFC signal in tobacco or Arabidopsis were performed as described previously 5. Fluorescence of YFP was visualized by using a spinning-disk confocal microscope (Leica Microsystems, Heerbruag, Germany).

The next test concerns the target T2, nYFP-AtSK12 (Arabidopsis, UniProt P43289 1-409).
T2 construct: BiFC construct in transgenic Arabidopsis; not shown: N-terminal half of YFP (nYFP)
T2 sequence (looked up): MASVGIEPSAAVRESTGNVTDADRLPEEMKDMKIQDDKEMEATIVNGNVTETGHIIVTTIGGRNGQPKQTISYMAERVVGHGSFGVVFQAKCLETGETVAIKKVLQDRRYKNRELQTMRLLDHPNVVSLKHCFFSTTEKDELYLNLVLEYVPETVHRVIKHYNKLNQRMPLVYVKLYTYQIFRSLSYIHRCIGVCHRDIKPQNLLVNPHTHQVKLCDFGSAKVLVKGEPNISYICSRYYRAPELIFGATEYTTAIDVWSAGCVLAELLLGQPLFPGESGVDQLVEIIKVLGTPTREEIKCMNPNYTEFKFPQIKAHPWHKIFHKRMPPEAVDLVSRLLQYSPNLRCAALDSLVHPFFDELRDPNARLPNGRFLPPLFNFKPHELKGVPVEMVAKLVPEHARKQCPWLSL
Put plainly: BiFC in Arabidopsis seedlings, epidermal cells. The procedure:
as §1, §2

For a further test, the target named is T3, MBP-BSU1 (Arabidopsis, UniProt Q9LR78 1-793).
T3 construct: Recombinant fusion used as probe in overlay (far-western) blots and in phosphatase assays; also called BSU1 from E. coli
Put plainly: overlay blot with MBP-BSU1 after incubation of GST-BSK1 with GST-BRI1-K. As for the experimental part:
Total protein extracts obtained from Arabidopsis plants (F1) expressing BSU1 -YFP or co-expressing BSU1-YFP and BSK1-myc were immunoprecipitated with anti-myc, and the immunoblot was probed with anti-GFP and anti-myc antibody. […] GST-BSK1 or GST-BSK1 S230A was incubated with GST-BRI1-K or GST for 2 hrs. […] In the presence of BR (+BR), BR binding to the extracellular domain of BRI1 induces dissociation of BKI1 and association and inter-activation between BRI1 and BAKI. Activated BRI1 then phosphorylates BSK1, which in turn dissociates from the receptor complex and interacts with and presumably activate BSU1. BSU1 inactivates BIN2 by dephosphorylating its pTyr200, allowing accumulation of unphosphorylated BZR1/2, likely with help of a phosphatase that is yet to be identified. Unphosphorylated BZR1/2 accumulate in the nucleus and alter the expression of BR-target genes, leading to cellular and developmental responses. While individual representative protein is shown for each function, in Arabidopsis most of these components have about 2 to 5 homologous proteins (paralogs) that can contribute to the same or similar signaling function.
To test interaction of BSU1 with BIN2 or bin2-1 in vitro, a gel blot separating GST, GST-BIN2, GSTbin2-1 was incubated with 20 μg MBP-BSU1 in 5% non-fat dry milk/PBS buffer and washed four times. The blot was then probed with a polyclonal anti-MBP antibody. […]

T3 sequence (Q9LR78 whole entry, the tested form may be a part): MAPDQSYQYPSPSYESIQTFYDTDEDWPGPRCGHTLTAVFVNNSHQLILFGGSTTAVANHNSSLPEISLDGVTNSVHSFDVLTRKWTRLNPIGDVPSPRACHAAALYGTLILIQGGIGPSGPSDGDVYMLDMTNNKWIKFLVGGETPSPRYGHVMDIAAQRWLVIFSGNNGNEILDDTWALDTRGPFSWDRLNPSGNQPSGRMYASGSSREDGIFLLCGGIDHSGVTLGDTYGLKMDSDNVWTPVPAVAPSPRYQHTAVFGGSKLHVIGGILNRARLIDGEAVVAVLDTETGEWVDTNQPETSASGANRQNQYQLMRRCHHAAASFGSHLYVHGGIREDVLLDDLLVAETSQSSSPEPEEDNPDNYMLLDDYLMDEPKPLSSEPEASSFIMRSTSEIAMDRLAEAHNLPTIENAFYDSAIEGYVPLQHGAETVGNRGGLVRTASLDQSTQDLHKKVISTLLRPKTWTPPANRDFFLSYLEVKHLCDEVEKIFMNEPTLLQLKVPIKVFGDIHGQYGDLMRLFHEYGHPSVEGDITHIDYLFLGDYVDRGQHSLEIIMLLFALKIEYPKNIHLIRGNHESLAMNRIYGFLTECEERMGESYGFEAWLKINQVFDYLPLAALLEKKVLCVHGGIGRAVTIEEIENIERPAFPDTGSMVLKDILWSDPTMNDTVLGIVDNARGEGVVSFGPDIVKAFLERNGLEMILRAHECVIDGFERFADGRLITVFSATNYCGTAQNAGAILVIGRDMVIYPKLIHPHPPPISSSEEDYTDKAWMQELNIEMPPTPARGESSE

B1: BZR1-cYFP (other, Arabidopsis, UniProt Q8S307 1-336, looked up)
chain: MTSDGATSTSAAAAAAAAAAARRKPSWRERENNRRRERRRRAVAAKIYTGLRAQGDYNLPKHCDNNEVLKALCVEAGWVVEEDGTTYRKGCKPLPGEIAGTSSRVTPYSSQNQSPLSSAFQSPIPSYQVSPSSSSFPSPSRGEPNNNMSSTFFPFLRNGGIPSSLPSLRISNSCPVTPPVSSPTSKNPKPLPNWESIAKQSMAIAKQSMASFNYPFYAVSAPASPTHRHQFHTPATIPECDESDSSTVDSGHWISFQKFAQQQPFSASMVPTSPTFNLVKPAPQQMSPNTAAFQEIGQSSEFKFENSQVKPWEGERIHDVGMEDLELTLGNGKARG
notes: BiFC construct in transgenic Arabidopsis; not shown: C-terminal half of YFP (cYFP)
For the molecule B1, the binding result in the test with nYFP-BIN2 and in the test with nYFP-AtSK12 was “binds” each time.

B2: GST-BSK1 phosphorylated by GST-BRI1-K (enzyme, Arabidopsis, UniProt Q944A7 1-512, looked up)
chain: MGCCQSLFSGDNPLGKDGVQPQPLSQNNHGGATTADNGGSGGASGVGGGGGGGGIPSFSEFSFADLKAATNNFSSDNIVSESGEKAPNLVYKGRLQNRRWIAVKKFTKMAWPEPKQFAEEAWGVGKLRHNRLANLIGYCCDGDERLLVAEFMPNDTLAKHLFHWENQTIEWAMRLRVGYYIAEALDYCSTEGRPLYHDLNAYRVLFDEDGDPRLSCFGLMKNSRDGKSYSTNLAYTPPEYLRNGRVTPESVTYSFGTVLLDLLSGKHIPPSHALDMIRGKNIILLMDSHLEGKFSTEEATVVVELASQCLQYEPRERPNTKDLVATLAPLQTKSDVPSYVMLGIKKQEEAPSTPQRPLSPLGEACSRMDLTAIHQILVMTHYRDDEGTNELSFQEWTQQMKDMLDARKRGDQSFREKDFKTAIDCYSQFIDVGTMVSPTVFGRRSLCYLLCDQPDAALRDAMQAQCVYPDWPTAFYMQSVALAKLNMNTDAADMLNEAAQLEEKRQRGGRGS
modifications: phosphorylated by BRI1 kinase domain in vitro; phospho-Ser230 as the site named
notes: GST-BSK1 incubated with GST-BRI1-K and 100 uM ATP for 2 hrs before SDS-PAGE; also called phosphorylated BSK1; not shown: GST (glutathione S-transferase) tag
Take B2: in the test with MBP-BSU1, the binding result is listed as “binds”.

Values taken from patent publication US20120322150A1 (CARNEGIE INSTITUTION OF WASHINGTON, published 2012).
